Results from patent US20030236190A1 (published 2003).
Positions of bridges follow the written chain, without caps; N, C: chain ends. No end group written: not given here.

B1: H2CA-4-86-GFR (peptide)
peptide: AVRATRFDEAFYDWFVRQISDGQGNK
B2: 20C-4-C7-IGFR (peptide)
peptide: FFYDCLAALLQGVARYHDLCAVEIT
modifications: disulfide 5-20 (inferred)
B3: H2CA-1-A3-IGFR (peptide)
peptide: APDPSDFQEIFYDWFVRQVSRMPGGG
B4: R20β-4-A6-IR (peptide)
peptide: RGQSDAFYSGLWALIGLSDG
B5: X2CA-2-B4-IGFR (peptide)
peptide: CCLLCRFQQNFYDWFVCQGISRLRPL
modifications: disulfide (positions not given here); also: disulfide among the four cysteines, pairing not given here
B6: H2CA-2-B9-IGFR (peptide)
peptide: RAGSSDFHEDFYEWFVRQVSLSLKGK
B7: 20E2B-1-A6-IGFR (peptide)
peptide: GVRAMSFYDALVSVLGLGPSG
B8: NNRPγ-4-B11-IR (peptide)
peptide: LKDGFYDYFWQRLHLGS
B9: N2CA-3-D6-IGFR (peptide)
peptide: QSPVGSSHEDFYDWFFRQVAQSGAHQ
B10: H2CA-4-H4-IGFR (peptide)
peptide: QAVQPGFHEEFYDWFVRQVSTGVGGG
B11: 20E2B-3-C6-IGFR (peptide)
peptide: VEGRGLFYDLLRQLLARRQNG
B12: A6S-3-E2-IR (peptide)
peptide: TSEVQRRSQDNFYDWFVAQVA
B13: A6S-2-D11-IR (peptide)
peptide: EAASLGSQDRNFYDWFVRQVV
B14: H2CA-1-A7-IGFR (peptide)
peptide: RCGRELYHSTFYDWFDRQVAGRTCPS
B15: 142CA-3-D8-IGFR (peptide)
peptide: NYRRQVFNGNFYDWFDRQVFSLVTPG
B16: E2CA-2-B2-IGFR (peptide)
peptide: GAPVDQLHEDFYDWFVRQVSQAATG
B17: 20E2Bβ-4-G6-IR (peptide)
peptide: SQAGSAFYAWFDQVLRTVHSA
B18: H2CA-4-F1O-IGFR (peptide)
peptide: VNQSGSIHENFYDWFERQVSHQRGVR
B19: E4Da-4-H2-IR (peptide)
peptide: GFREGNFYEWFQAQVT
B20: 20C-3-G3-IGFR (peptide)
peptide: TFYSCLASLLTGTPQPNRGPWERCR
modifications: disulfide 5-24 (inferred)
B21: H2CA-4-G11-IGFR (peptide)
peptide: TLDGGSFEEQFYDWFVRQLSYRTNPD
B22: 20E2A-4-F11-IGFR (peptide)
peptide: QGGSASFYDAIDRLLRMRIGG
B23: H2CA-3-E11-IGFR (peptide)
peptide: HLADGQFHEKFYDWFERQISSRCNDC
B24: A6S-2-D1-IR (peptide)
peptide: VERSASSQDGNFYDWFVVQIR
B25: E4Dα-2-D11-IR (peptide)
peptide: GFREGSFYDWFQAQVT
B26: E2CA-3-E8-IGFR (peptide)
peptide: LGYQEPFQQNFYDWFVRQVSGAENAG
B27: H2CA-3-C11-IGFR (peptide)
peptide: FRTLAAQHDSFYDWFDRQVSGAAGER
B28: 20E2Bβ-4-G7-IR (peptide)
peptide: LQPCSGFYECIERLIGVKLSG
modifications: disulfide 4-10 (inferred)
B29: H2CA-3-C8-IGFR (peptide)
peptide: SSCDGAGHESFYEWFVRQVSGCRSV
modifications: not fully specified (bridges); cysteine pairing not given here
B30: N2CA-4-F7-IGFR (peptide)
peptide: SSIGGGFHENFYDWFSRQLSQSPPLK
B31: H2CA-4-F1-IGFR (peptide)
peptide: FYVQQWGHENFYDWFDRQVSQSGGAG
B32: H2CA-2-B3-IGFR (peptide)
peptide: PPLASDLDVQFYGWFVQQVSPPGRGG
B33: H2CA-3-D7-IGFR (peptide)
peptide: LRRQAPVEENFYDWFVRQVSGDRVGG
B34: S603 (peptide)
peptide: Ac-SLEEEWAQIQEDLYGANHNESFYDWFERQL
B35: S602 (peptide)
peptide: SLEEEWAQIQAEVYGNPNSESFYDWFERQL
B36: S597 (peptide)
peptide: SLEEEWAQIECEVYGRGCPSESFYDWFERQL
modifications: not fully specified; N-terminal acetyl
B37: S601 (peptide)
peptide: SLEEEWAQIQEDLYGANHNESFYDWFERQL
B38: S605 (peptide)
peptide: SLEEEWAQIQHELWPVEKGESFYDWFERQL

target: T1, Soluble IGF-1R (R&D Systems, Cat. # 391-GR/CF); recombinant human IGF-1R (human, UniProt P08069 31-935); experiment: phage ELISA vs milk
T1 construct: extracellular domain; Eu3+-labelled in the TR-FRET assays; also called sIGF-1R; rhIGF-1R

Binder	Ratio over Background
B1	7.3 fold
B2	28 fold
B3	3.8 fold
B4	25.9 fold
B5	4.1 fold
B6	7 fold
B7	18.1 fold
B8	18.7 fold
B9	9 fold
B10	4.1 fold
B11	16.8 fold
B12	24.7 fold
B13	37.4 fold
B14	2.2 fold
B15	7.2 fold
B16	3.4 fold
B17	6.2 fold

Binder	Ratio over Background
B18	5.7 fold
B19	33.9 fold
B20	32.3 fold
B21	9.5 fold
B22	18.8 fold
B23	2.2 fold
B24	30.6 fold
B25	11.1 fold
B26	6.3 fold
B27	3.3 fold
B28	25.2 fold
B29	5.6 fold
B30	3.2 fold
B31	3.5 fold
B32	3.8 fold
B33	3 fold

target: T2, Insulin receptor prepared according to Bass et al., 1996: soluble human insulin receptor-immunoglobulin heavy … (human, UniProt P06213 28-956); experiment: phage ELISA vs milk
T2 construct: extracellular domain; Eu3+-labelled in TR-FRET; also called IR; sIR-Fc; not shown: immunoglobulin heavy chain constant domains that replace the transmembrane and i

Binder	Ratio over Background
B1	1.1 fold
B2	1.3 fold
B3	0.8 fold
B4	1.5 fold
B5	1.1 fold
B6	1.7 fold
B7	1.1 fold
B8	1.2 fold
B9	2.2 fold
B10	1 fold
B11	1.1 fold
B12	9.8 fold
B13	13.9 fold
B14	0.6 fold
B15	1.8 fold
B16	1 fold
B17	1.9 fold

Binder	Ratio over Background
B18	1 fold
B19	8.2 fold
B20	1.2 fold
B21	2.5 fold
B22	1.3 fold
B23	1 fold
B24	12 fold
B25	3.3 fold
B26	2.2 fold
B27	1.6 fold
B28	1.6 fold
B29	1.2 fold
B30	0.8 fold
B31	0.9 fold
B32	1 fold
B33	0.8 fold

target: T1, Soluble IGF-1R (R&D Systems, Cat. # …); experiment: phage ELISA, vs IR

Binder	IGF-1R/IR Comparison
B1	6.4 ratio
B2	21.8 ratio
B3	5.1 ratio
B4	17.3 ratio
B5	3.6 ratio
B6	4.2 ratio
B7	16.8 ratio
B8	15.5 ratio
B9	4 ratio
B10	4.2 ratio
B11	14.8 ratio
B12	2.5 ratio
B13	2.8 ratio
B14	3.7 ratio
B15	4 ratio
B16	3.5 ratio
B17	3.3 ratio

Binder	IGF-1R/IR Comparison
B18	5.9 ratio
B19	4.1 ratio
B20	27 ratio
B21	3.9 ratio
B22	14.6 ratio
B23	2.2 ratio
B24	2.6 ratio
B25	3.4 ratio
B26	2.9 ratio
B27	2.1 ratio
B28	15.8 ratio
B29	4.8 ratio
B30	4.1 ratio
B31	3.8 ratio
B32	3.6 ratio
B33	3.7 ratio

target: human insulin receptor (HIR) (human, UniProt P06213 28-1382, limits assumed); experiment: 125I-insulin competition, solubilised HIR

Binder	Kd
B34	0.015 nM
B35	0.031 nM
B36	0.0085 nM
B37	0.18 nM
B38	0.094 nM

target: T2, Insulin receptor prepared according to …; experiment: phage ELISA, vs IGF-1R

Binder	IR/IGF-1R Comparison
B1	0.2 ratio
B2	< 0.1 ratio
B3	0.2 ratio
B4	0.1 ratio
B5	0.3 ratio
B6	0.2 ratio
B7	0.1 ratio
B8	0.1 ratio
B9	0.3 ratio
B10	0.2 ratio
B11	0.1 ratio
B12	0.4 ratio
B13	0.4 ratio
B14	0.3 ratio
B15	0.3 ratio
B16	0.3 ratio
B17	0.3 ratio

Binder	IR/IGF-1R Comparison
B18	0.2 ratio
B19	0.2 ratio
B20	< 0.1 ratio
B21	0.3 ratio
B22	0.1 ratio
B23	0.5 ratio
B24	0.4 ratio
B25	0.3 ratio
B26	0.3 ratio
B27	0.5 ratio
B28	0.1 ratio
B29	0.2 ratio
B30	0.2 ratio
B31	0.3 ratio
B32	0.3 ratio
B33	0.3 ratio
